Source: PMC13486704 (2026)

Tests used:
[1] = target: HCMV protease (Human cytomegalovirus) (UniProt P16753); conditions: cited from earlier work
[2] = target: the molecule itself

| Molecule | Kd [1] | Kd [2] |
| --- | --- | --- |
| HCMV protease (from UniProt P16753) | 5.8 µM | – |
| HCMV protease (protein) MTMDEQQSQAVAPVYVGGFLARYDQSPDEAELLLPRDVVEHWLHAQGQGQPSLSVALPLNINHDDTAVVGHVAAMQSVRDGLFCLGCVTSPRFLEIVRRASEKSELVSRGPVSPLQPDKVVEFLSGSYAGLSLSSRRCDDVEAATSLSGSETTPFKHVALCSVGRRRGTLAVYGRDPEWVTQRFPDLTAADRDGLRAQWQRCGSTAVDASGDPFRSDSYGLLGNSVDALYIRERLPKLRYDKQLVGVTERESYVKA | – | ~70 µM |
